Measurements: publication PMC4605295, “The N-terminus of RPA large subunit and its spatial position are important for the 5′->3′ resection of DNA double-strand breaks” (Nucleic Acids Research, 2015)

Biological target: T1, GST fusion of Xenopus RPA1 (RPA large subunit) (Xenopus, UniProt Q01588 1-609)
T1 construct: Xenopus RPA1, large subunit of replication protein A; the gene for the subunit was subcloned into a pGEX vector; In-frame GST fusion from a pGEX vector; also called the large subunit; source: E. coli BL21(DE3), purified (glutathione Sepharose)
Assay: pull-down; GST fusions of RPA subunits or RPA1 regions incubated with His-tagged WRN 1-465, isolated on glutathione Sepharose beads, 4°C 1 h; washed with buffer A + 150 mM NaCl + 0.005% NP-40; Western blot for WRN
Conditions: both partners purified

T1 sequence (Q01588 whole entry, the tested form may be a part): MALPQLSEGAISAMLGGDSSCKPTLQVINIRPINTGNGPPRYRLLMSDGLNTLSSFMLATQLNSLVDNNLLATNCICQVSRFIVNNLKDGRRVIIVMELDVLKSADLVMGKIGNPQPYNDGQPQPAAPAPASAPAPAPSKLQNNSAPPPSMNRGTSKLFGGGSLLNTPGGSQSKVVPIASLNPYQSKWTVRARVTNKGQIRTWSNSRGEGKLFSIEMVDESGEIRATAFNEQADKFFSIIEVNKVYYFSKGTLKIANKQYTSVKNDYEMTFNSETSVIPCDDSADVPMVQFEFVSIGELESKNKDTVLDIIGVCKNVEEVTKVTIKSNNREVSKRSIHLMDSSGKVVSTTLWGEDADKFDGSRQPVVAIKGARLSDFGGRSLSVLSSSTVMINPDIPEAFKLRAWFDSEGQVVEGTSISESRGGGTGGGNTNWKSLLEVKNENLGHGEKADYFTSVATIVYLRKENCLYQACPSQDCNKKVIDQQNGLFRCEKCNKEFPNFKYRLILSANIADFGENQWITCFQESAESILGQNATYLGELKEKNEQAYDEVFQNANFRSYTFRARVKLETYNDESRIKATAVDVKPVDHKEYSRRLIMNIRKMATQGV

B1: His-tagged Xenopus WRN 1-465 (domain or fragment, UniProt O93530 1-465, looked up)
chain: MTSLQRKLPEWMSVKQQEDRIDDAKKSFCKKNILEDNLPFMKFNGSIVYSYESNDCSLLSEDIRSSLLEEDVLGFDIEWPPVYTKGKTGKVALIQVCVSEKKCYLFHISPMAGFPKGLKRLLEDESVRKVGVGIEGDQWKLMSDYELKLKGFIELSEMANQKLRCKEKWTFNGLIKHLFKEQLYKRKSYRCSNWDIFLLTEDQKLYAATDAYAGLLIYKKLEGMDAHESDSFRVGREGVADCKGVKRQLTDLSKGLMDLVNQVPNSFGCYTEAVRAVDILEDLSEKLEELRNIMKEASKAEGNGLHFQNSEDCSKKDKSILHVACKESLAEHKMDCKNADSQNNKDIDSCQNENRDEDFFMTLGISEEELYMMEREDDKKQTNPDYKLNKDSCDTNEEKDMSYVIESDEDFDSEIIKSLEDLDNSTEEALGTGVPQAGLIPAKSVDTVADEEEDEGIEEEDDDDD
- binding result: binds
